Measured values: patent US12497461B2, “Human NTCP-binding antibody capable of inhibiting infection of hepatitis B virus (HBV) to human hepatocytes” (priority 2019, dated 2025)
Positions count from the first letter of the chain named. Several values for one entry are separate records, joined by “and”; a condition that tells them apart may be missing. Equal entries are not always repeated.

Key:
HBV = assay: HBV-infection inhibition in human hepatocyte chimeric mouse, serum HBV-DNA; format: in vivo, human hepatocyte chimeric mouse (uPA/SCID); parameters: key to serum HBV DNA level, One week later / serum HBV DNA level, Two weeks later / serum HBV DNA level, Three weeks later / serum HBV DNA level, Four weeks later / serum HBV DNA level, Five weeks later: “—” indicates values below the limit of detection.; “<3.61” indicates values below the limit of quantitation but a specific signal detected indicating an amplification reaction of HBV
Experimental: (§1) Preparation of uPA/SCID mice and transplantation of human hepatocytes were carried out in accordance with the report (Tateno C. et al., Am. J. Pathol., 165: 901-912, 2004). To all mice, human hepatocytes taken from the same donor were transplanted. Twenty-three mice, which are obtained by replacing 90% or more of the liver tissue with human hepatocytes by transplantation, were used in the experiment. To these mice, human serum containing 10^3 copies of HBV was administered (inoculated) through the tail vein. One day before and two days after HBV inoculation, 2.0 mg of purified N6HB426-20 antibody was intravenously injected. On Day 7, 14, and 21 after the HBV inoculation, 1.0 mg of the same antibody was intraperitoneally injected. As a control experiment, the same dose of normal mouse IgG antibody (Normal Mouse IgG, Whole Molecule, Purified, FUJIFILM Wako Pure Chemical Corporation) was injected in the same manner. A single mouse died on Day 0 after administration was excluded from the experiment. Ten mice for each of the groups, in total, 20 mice, were used. After the HBV inoculation, the serum was collected every week. Note that, 3 mice were used for confirmation of infection and not administered with a drug.
(§2) For quantification of HBV-DNA, 10 μL of mouse serum was used. Mouse serum was diluted with 690 μL of PBS and DNA was extracted. The serum HBV-DNA level was measured by a real-time PCR method using cobas 6800 System (Roche Diagnostics KK, Tokyo, Japan). In this measurement method, the lower limit of quantification was 3.61 log copies/mL. Mouse serum (10 μL) was diluted 30 folds with PBS and bile acid was measured.

[1] = format: in vivo, human hepatocyte chimeric mouse (uPA/SCID); details: administration group; highest at HBV inoculation, decreased on and after the first week
Experimental: as §1, with “Ten mice for each of the groups, in total, 20 mice, were used. After the HBV inoculation, the serum was collected every week. Note that, 3 mice were used for confirmation of infection and not administered with a drug.” left out
as §2, with “Mouse serum was diluted with 690 μL of PBS and DNA was extracted.” left out

human NTCP Y146A mutant = target: T1, human NTCP Y146A mutant (Homo sapiens, UniProt Q14973, Y146A); assay: Antibody binding to NTCP mutant (epitope mapping); details: FIG. 5A, left
T1 construct: expressed in transfected cells; host or cells: HepG2 or Huh7 cells, lentiviral transduction
T1 sequence (Q14973 1-349 Y146A): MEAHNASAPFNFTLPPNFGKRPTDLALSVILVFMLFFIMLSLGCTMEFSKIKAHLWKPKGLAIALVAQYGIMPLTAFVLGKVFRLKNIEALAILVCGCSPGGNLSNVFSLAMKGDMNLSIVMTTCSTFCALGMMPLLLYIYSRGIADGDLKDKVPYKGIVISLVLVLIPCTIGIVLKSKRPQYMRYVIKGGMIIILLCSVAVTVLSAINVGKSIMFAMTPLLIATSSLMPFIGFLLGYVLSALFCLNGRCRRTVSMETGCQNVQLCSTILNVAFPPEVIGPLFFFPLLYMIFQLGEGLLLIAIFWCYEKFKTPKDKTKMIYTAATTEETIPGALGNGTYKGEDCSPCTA
Experimental: (§3) To establish NTCP expression cells, HepG2 cells or Huh7 cells were infected with a lentiviral vector having a nucleic acid encoding a wild-type NTCP or each of NTCP mutants. Forty-eight hours after infection, the cells were subjected to an immunofluorescence assay or a viral infection assay.
(§4) Huh7 cells expressing a wild-type NTCP or each of the NTCP mutants were fixed with 4% paraformaldehyde, and then, a permeation treatment with 0.3% Triton X-100 was performed. Each of the NTCPs was detected by using N6HB426-20 antibody or HE1-9-10 antibody (dilution ratio: 1:200) and an Alexa Fluor488-conjugate goat anti-mouse IgG antibody (secondary antibody) (Thermo Fisher Scientific) (dilution ratio: 1:1000). Imaging of the cells was carried out by use of a laser scanning confocal microscope using FLUOVIEW fv1000 and IX73 (OLYMPAS).
(§5) In this manner, the relationship with a region important for HBV infection was clarified. Sensitivity to HBV infection, a change in inhibitory activity of the antibody and contribution of a predetermined amino acid residue to FACS analysis were evaluated by alanine scanning method and use of an NTCP mutant transfectant. […] However, both ends of the amino acid residues at positions 276-277 (i.e., amino acid residues at positions 274-275 and 278-279) serve as an epitope involved in HBV infection. […] The phenomenon was further precisely analyzed. […]

[2] = target: T2, human NTCP triple mutant (YDD146, 149, and 152AAA) (Homo sapiens, UniProt Q14973, D149A/D152A/Y146A); assay: Antibody binding to NTCP mutant (epitope mapping); details: FIG. 5B
T2 construct: expressed in transfected cells; host or cells: HepG2 or Huh7 cells, lentiviral transduction
T2 sequence (Q14973 1-349 Y146A/D149A/D152A): T1 sequence (Q14973 1-349 Y146A) with D149A, D152A
Experimental: as §3, §4, §5

[3] = tested on: HBV / NTCP double mutant (PE276, 277AA); assay: HBV infection of cells expressing NTCP double mutant in the presence of antibody; format: cell-based, hepatitis B virus (HBV); details: FIG. 7
Description: as §3

B1: N6HB426-20 antibody: anti-human NTCP monoclonal antibody from a sub-clone of N6HB426 hybridoma; VH SEQ ID NO: 3, VL SEQ ID NO: 4 (antibody, V domains shown)
VH: QVQLQQSGAELVKPGASVKLSCKASDFTFTEYTIHWIKQMSGQGLEWIGWFYPGSGDIKYSEKFKDKATLTADKSSSTVYMELNRLTSEDSAVYFCARHMRDFRGFYYGRFYFDYWGQGTTLTVSS
VL: EIVLTQSPAIMSASPGEKVTITCRASSSVSSSYLHWYQQKSGVSPKLWIYSTSNLASGVPARFSGSGSGTSYSLTINSVEAEDAATYYCQQYSGYRWTFGGGTTLEIKRA
modifications: N6HB426 antibody heavy chain variable region; N6HB426 antiibody light chain variable region
serum HBV-DNA in the 4th week after HBV inoculation (HBV; all of the 10 mice of the group): not detected
serum HBV DNA level, Five weeks later (HBV; test group, individual mice, five weeks after HBV inoculation): — (8×) and <3.61 log copies/mL
serum HBV DNA level, Four weeks later (HBV; test group, individual mice, four weeks after HBV inoculation): —
serum HBV DNA level, One week later (HBV; test group, individual mice, one week after HBV inoculation): —
serum HBV DNA level, Three weeks later (HBV; test group, individual mice, three weeks after HBV inoculation): —
serum HBV DNA level, Two weeks later (HBV; test group, individual mice, two weeks after HBV inoculation): —
bile acid level in the sera [1]: transient increase
binding to single mutant Y146A (human NTCP Y146A mutant): significantly low binding
binding to triple mutant (YDD146, 149, and 152AAA) [2]: weak binding
inhibition of HBV infection of cells expressing double mutant (PE276, 277AA) [3]: failed to be inhibited
